Test results published in publication PMC12629460.

Experiments:
Experiment in all cases: cryo-EM structure
[1] = biological target: PltBd1 recombinantly expressed in E. coli as part of a holotoxin (S. diarizonae)
[2] = biological target: PltBd2 recombinantly expressed in E. coli as part of the PltBd2 homopentameric holotoxin (S. diarizonae)
[3] = biological target: PltBd2 in the endogenously expressed DiaT holotoxin purified from S. diarizonae (S. diarizonae)

With “PltBd1 recombinantly expressed in E. coli as part of a holotoxin (natural protein)” the stoichiometry N [1] was 5.

“PltBd2 recombinantly expressed in E. coli as part of the PltBd2 homopentameric holotoxin (natural protein)” showed a stoichiometry N [2] of 5.

In the case of “PltBd1 in the endogenously expressed DiaT holotoxin purified from S. diarizonae (natural protein)”, the stoichiometry N (PltBd1 per PltBd2 (3:2)) [3] is reported as 1.5.
